These results are taken from PMC10288270, “Study on the Role of an Erythrocyte Membrane‐Coated Nanotheranostic System in Targeted Immune Regulation of Alzheimer's Disease”.

The data set deals with Amyloid beta 1-42 (UniProt P05067 672-713). The data set is described as follows: fluorescence recovery (FAM/BHQ1 dequenching); Abeta 0-160 ug/mL, 2 h; TBS: 1 mM Tris-HCl, 100 mM NaCl, 4 mM MgCl2, 5 mM KCl, pH 7.4; 37 C, 2 h; aptamer refolded from 95 C; 2 uL of 10 uM aptamer. The note with it: protein: commercial; label: 5' 6-FAM, 3' BHQ1 as printed in Methods (Results text states FAM 3', BHQ 5'); hairpin (stated design).
Sequence of Amyloid beta 1-42 (P05067 672-713): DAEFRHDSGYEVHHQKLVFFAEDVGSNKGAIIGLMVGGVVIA

B1: Abeta aptamer (AAP) (structured_DNA)
DNA: TGGGGGGCGGACGATAGGGGCCCCCCGGTAGGATGGACG
With B1, the binding result is “binds”.
